B1: β-RAR DNA (dsDNA)
DNA 1: CACCGAAAGTTCACTC
DNA 2: GAGTGAACTTTCGGTG
B2: random DNA (dsDNA)
DNA 1: TGTTTCTGCCTCTGT
DNA 2: ACAGAGGCAGAAACA

Tests used:
Experiment in all cases: fluorescence anisotropy
[1] = biological target: CCFHC NZF-1-F2F3 (Rattus norvegicus, UniProt P70475 487-584, H515F;H559F)
[2] = biological target: NZF-1-F2F3 (Rattus norvegicus, UniProt P70475 487-584)
[3] = biological target: MyT1-F2F3 (Rattus norvegicus, UniProt D3ZYT5 425-521)
[4] = biological target: CCHFC NZF-1-F2F3 (Rattus norvegicus, UniProt P70475 487-584, H522A;H523F;H567F)
Chain of CCHFC NZF-1-F2F3 (P70475 487-584 H522A/H523F/H567F): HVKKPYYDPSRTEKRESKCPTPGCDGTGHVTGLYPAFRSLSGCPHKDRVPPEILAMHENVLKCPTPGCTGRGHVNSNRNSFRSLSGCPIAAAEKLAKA

Chain of CCFHC NZF-1-F2F3 (P70475 487-584 H515F/H559F): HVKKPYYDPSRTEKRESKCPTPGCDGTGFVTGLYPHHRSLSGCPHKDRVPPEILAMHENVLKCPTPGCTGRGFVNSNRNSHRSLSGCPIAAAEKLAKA
Chain of NZF-1-F2F3 (P70475 487-584): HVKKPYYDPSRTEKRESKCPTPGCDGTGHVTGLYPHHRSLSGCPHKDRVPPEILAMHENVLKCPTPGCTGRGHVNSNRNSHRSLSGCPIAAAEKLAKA

Binder | binding result [1] | Kd [2] [nM] | Kd [3] [nM] | binding result [4] | binding result [2]
B1 | no binding | 14 | 1300 | no binding | 
B2 | no binding |  | 910 | no binding | no binding

Source: paper PMC3671583
